Data from patent US20240270846A1 (published 2024).
Changes are numbered by the printed parent chain.

T1: cynomolgus monkey CD137 (cynomolgus monkey, UniProt Q07011 24-186 (human entry), limits assumed)
T1 construct: Soluble analyte in the Biacore assay; also called cyno CD137
T1 chain: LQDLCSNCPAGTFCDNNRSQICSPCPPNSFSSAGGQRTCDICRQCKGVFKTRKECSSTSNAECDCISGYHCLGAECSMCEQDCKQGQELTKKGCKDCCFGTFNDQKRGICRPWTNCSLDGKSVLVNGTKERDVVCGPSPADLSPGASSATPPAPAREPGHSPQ

B1: dBBDu_186 / dBBDu_L096 (antibody, human IgG1, V domains shown)
VH: QVQLVESGGGLVQPGRSLRLSCAASGFTFSNAWMHWVRQAPGKGLEWVAQIKDRSNQYATYYAPSVKGRFTISRDDSKNSIYLQMNSLKTEDTAVYYCHYVHYAQASTVLPAFGVDAWGQGTTVTVSS
VL: DIVMTQSPLSLPVTPGEPASISCRTSQELVHINRYIFLHWYQQKPGQAPRLLIYKVYNRFQGVPDRFSGSGSGTDFTLKISRVEAEDVGVYYCAQGTSVPYTFGQGTKLEIK
notes: Tested as IgG (human IgG1 constant region, kappa light chain); also called dBBDu186/L096
B2: dBBDu_189 / dBBDu_L112 (antibody, human IgG1, V domains shown)
VH: B1 VH with V48I, T108S, V109L, A112S
VL: B1 VL with R24T, T25S, S26D, I32M, Y35H, I36T, F37Y, Q61P, Y101F
notes: Tested as IgG (human IgG1 constant region, kappa light chain); also called dBBDu189/L112
B3: dBBDu_183 / dBBDu_L063 (antibody, V domains shown)
VH: B1 VH with R54K, S55G, Q57A, T60A, Q105S
VL: B1 VL with T25S, I32T, Y35H, I36T, F37Y, Y57S, Q61P, S98Q, Y101F
notes: Tested as IgG (Fab genes converted into IgG format, human IgG1 constant region, kappa light chain); also called dBBDu183/L063; dBBDu_183/L063
B4: dBBDu_189 / dBBDu_L116 (antibody, human IgG1, V domains shown)
VH: B1 VH with V48I, T108S, V109L, A112S
VL: B1 VL with R24S, T25S, I32A, Y35Q, F37Y, Y57A, Q61P, S98Q, Y101F
notes: Tested as IgG (human IgG1 constant region, kappa light chain); also called dBBDu189/L116
B5: dBBDu_167 / dBBDu_L091 (antibody, human IgG1, V domains shown)
VH: B1 VH with R54K, S55G, Q57L, T60A, Q105S, S107G, T108G, V109G, A112G
VL: DIVMTQSPLSLPVTPGEPASISCSASESLLHNNRHTYLHWYQQKPGQAPRLLIYRVSNRFNGVPDRFSGSGSGTDFTLKISRVEAEDVGVYYCGQGTQVPFTFGQGTKLEIK
notes: Tested as IgG (human IgG1 constant region, kappa light chain); also called dBBDu167/L091
B6: dBBDu_183 / dBBDu_L072 (antibody, human IgG1, V domains shown)
VH: B1 VH with R54K, S55G, Q57A, T60A, Q105S
VL: B1 VL with R24Q, T25A, I32M, Y35N, I36T, F37Y, Y57S, Q61P, Y101F
notes: Tested as IgG (human IgG1 constant region, kappa light chain); also called dBBDu183/L072; H183L072
B7: dBBDu_183 / dBBDu_L067 (antibody, human IgG1, V domains shown)
VH: B1 VH with R54K, S55G, Q57A, T60A, Q105S
VL: B5 VL with S24Q, A25S, L30V, N32V, R55K, S57Y, N61P, G94A, Q98S
notes: Tested as IgG (human IgG1 constant region, kappa light chain); also called dBBDu183/L067
B8: GPC3 ERY22-dBBDu_183/L063 (bispecific antibody, human IgG1, kappa, L234A L235A, N297A)
heavy 1: DIVMTQSPLSLPVTPGEPASISCRSSQSLVHSNRNTYLHWYQQKPGQAPRLLIYKVSNRFSGVPDRFSGSGSGTDFTLKISRVEAEDVGVYYCSQNTHVPPTFGQGTKLEIKSSASTKGPSVFPLAPSSKSTSGGTAALGCLVKDYFPEPVTVSWNSGALTSGVHTFPAVLQSSGLYSLSSVVTVPSSSLGTQTYICNVNHKPSNTKVDKKVEPKSCDKTHTCPPCPAPEAAGGPSVFLFPPKPKDTLMISRTPEVTCVVVDVSHEDPEVKFNWYVDGVEVHNAKTKPREEQYASTYRVVSVLTVLHQDWLNGKEYKCKVSNKALPAPIEKTISKAKGQPREPQVCTLPPSRDELTKNQVSLWCLVKGFYPSDIAVEWESNGQPENNYKTTPPVLDSDGSFFLYSKLTVDKSRWQQGNVFSCSVMHEALHNHYTQKSLSLSPHHHHHHHH
light 1: QVQLVQSGAEVKKPGASVKVSCKASGYTFTDYEMHWIRQPPGQGLEWIGAIDPKTGDTAYSQKFKGRVTLTADKSTSTAYMELSSLTSEDTAVYYCTRFYSYTYWGQGTLVTVSSASVAAPSVFIFPPSDEQLKSGTASVVCLLNNFYPREAKVQWKVDNALQSGNSQESVTEQDSKDSTYSLSSTLTLSKADYEKHKVYACEVTHQGLSSPVTKSFNRGEC
heavy 2: QVQLVESGGGLVQPGRSLRLSCAASGFTFSNAWMHWVRQAPGKGLEWVAQIKDKGNAYAAYYAPSVKGRFTISRDDSKNSIYLQMNSLKTEDTAVYYCHYVHYASASTVLPAFGVDAWGQGTTVTVSSASTKGPSVFPLAPSSKSTSGGTAALGCLVKDYFPEPVTVSWNSGALTSGVHTFPAVLQSSGLYSLSSVVTVPSSSLGTQTYICNVNHKPSNTKVDKKVEPKSCDKTHTCPPCPAPEAAGGPSVFLFPPKPKDTLMISRTPEVTCVVVDVSHEDPEVKFNWYVDGVEVHNAKTKPREEQYASTYRVVSVLTVLHQDWLNGKEYKCKVSNKALPAPIEKTISKAKGQPREPQVYTLPPSRCELTKNQVSLSCAVKGFYPSDIAVEWESNGQPENNYKTTPPVLDSDGSFFLVSKLTVDKSRWQQGNVFSCSVMHEALHNHYTQKSLSLSPDYKDDDDK
light 2: DIVMTQSPLSLPVTPGEPASISCRSSQELVHTNRHTYLHWYQQKPGQAPRLLIYKVSNRFPGVPDRFSGSGSGTDFTLKISRVEAEDVGVYYCAQGTQVPFTFGQGTKLEIKRTVAAPSVFIFPPSDEQLKSGTASVVCLLNNFYPREAKVQWKVDNALQSGNSQESVTEQDSKDSTYSLSSTLTLSKADYEKHKVYACEVTHQGLSSPVTKSFNRGEC
B9: GPC3 ERY22-dBBDu_183/L072 (bispecific antibody, human IgG1, kappa, L234A L235A, N297A)
heavy 1: B8 heavy 1
light 1: B8 light 1
heavy 2: B8 heavy 2
light 2: B8 light 2 with R24Q, S25A, T32M, H35N, Q98S
B10: GPC3 ERY22-dBBDu_189/L119 (bispecific antibody, human IgG1, kappa, L234A L235A, N297A)
heavy 1: B8 heavy 1
light 1: B8 light 1
heavy 2: B8 heavy 2 with V48I, K54R, G55S, A57Q, A60T, S105Q, T108S, V109L, A112S
light 2: B8 light 2 with R24T, S25A, T32I, H35F, T36I, Y37F, P61I, T97S
B11: GPC3 ERY22-dBBDu_167/L091 (bispecific antibody, human IgG1, kappa, L234A L235A, N297A)
heavy 1: B8 heavy 1
light 1: B8 light 1
heavy 2: B8 heavy 2 with A57L, S107G, T108G, V109G, A112G
light 2: B8 light 2 with R24S, S25A, Q27E, E28S, V30L, T32N, K55R, P61N, A94G
B12: GPC3 ERY22-dBBDu_189/L116 (bispecific antibody, human IgG1, kappa, L234A L235A, N297A)
heavy 1: B8 heavy 1
light 1: B8 light 1
heavy 2: B8 heavy 2 with V48I, K54R, G55S, A57Q, A60T, S105Q, T108S, V109L, A112S
light 2: B8 light 2 with R24S, T32A, H35Q, T36I, S57A
B13: GPC3 ERY22-dBBDu_186/L096 (bispecific antibody, human IgG1, kappa, L234A L235A, N297A)
heavy 1: B8 heavy 1
light 1: B8 light 1
heavy 2: B8 heavy 2 with K54R, G55S, A57Q, A60T, S105Q
light 2: B8 light 2 with S25T, T32I, H35Y, T36I, Y37F, S57Y, P61Q, Q98S, F101Y
B14: GPC3 ERY22-dBBDu_186/L098 (bispecific antibody, human IgG1, kappa, L234A L235A, N297A)
heavy 1: B8 heavy 1
light 1: B8 light 1
heavy 2: B8 heavy 2 with K54R, G55S, A57Q, A60T, S105Q
light 2: B8 light 2 with R24A, S25A, Q27E, T32I, H35Y, T36I, Y37F, P61I, T97S
B15: GPC3 ERY22-dBBDu_186/L106 (bispecific antibody, human IgG1, kappa, L234A L235A, N297A)
heavy 1: B8 heavy 1
light 1: B8 light 1
heavy 2: B8 heavy 2 with K54R, G55S, A57Q, A60T, S105Q
light 2: DIVMTQSPLSLPVTPGEPASISCSTSEELLHINRFIFLHWYQQKPGQAPRLLIYKVANRFMGVPDRFSGSGSGTDFTLKISRVEAEDVGVYYCAQGSQVPFTFGQGTKLEIKRTVAAPSVFIFPPSDEQLKSGTASVVCLLNNFYPREAKVQWKVDNALQSGNSQESVTEQDSKDSTYSLSSTLTLSKADYEKHKVYACEVTHQGLSSPVTKSFNRGEC

Each binder was assayed against T2, human CD3ed (human, UniProt P07766 23-126; P04234 22-105, limits assumed) (assay: SPR Biacore T200, IgG captured on protein A, antigen as analyte, 25 C;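 note: antigens flowed over a CM3 chip for 120 s association, KD derived from ka and kd, running buffer (ACES, NaCl, Tween20, pH 7.4) served as blank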).
T2 construct: The construct injected as 'human CD3ed' in the Biacore assay is not defined; also called human CD3 epsilon/delta heterodimer
T2 sequence (P07766 23-126 limits assumed, chain 1 of 2): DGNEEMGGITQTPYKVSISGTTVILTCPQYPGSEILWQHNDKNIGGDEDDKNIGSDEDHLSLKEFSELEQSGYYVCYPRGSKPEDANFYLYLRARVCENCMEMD
T2 sequence (P04234 22-105 limits assumed, chain 2 of 2): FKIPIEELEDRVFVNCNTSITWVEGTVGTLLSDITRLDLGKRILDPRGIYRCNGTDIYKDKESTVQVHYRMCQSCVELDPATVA
Procedure: (§1) Sensor chip CM3 (GE Healthcare) was immobilized with an appropriate amount of sure protein A (GE Healthcare) by amine coupling. The selected antibodies were captured by the chip to allow interaction to human CD3ed, human CD137 and cyno CD137 as an antigen. The running buffer used was 20 mmol/l ACES, 150 mmol/l NaCl, 0.05% (w/v) Tween20, pH 7.4. All measurements were carried out at 25 degrees C. The antigens were diluted using the running buffer.
(§2) Diluted antigen solutions and the running buffer which is the blank were loaded at a flow rate of 30 micro L/min for 120 seconds to allow each of the antigens to interact with the antibody captured on the sensor chip. […] Next, to regenerate the sensor chip, 10 mmol/L glycine-HCl, pH 1.5 was loaded at a flow rate of 30 micro L/min for 30 seconds and 50 mmol/L NaOH was loaded at a flow rate 30 micro L/min for 30 seconds.
(§3) Kinetic parameters such as the association rate constant ka (1/Ms) and the dissociation rate constant kd (1/s) were calculated based on the sensorgrams obtained by the measurements. The dissociation constant KD(M) was calculated from these constants. Each parameter was calculated using the Biacore T200 Evaluation Software (GE Healthcare).

| Kd [µM] | koff [s⁻¹] | kon [M⁻¹ s⁻¹] | Binder |
| --- | --- | --- | --- |
| 9.11 | 0.102 | 11200 | B1 |
| 0.331 | 0.01 | 30300 | B2 |
| 0.276 | 0.0157 | 56900 | B3 |
| 0.209 | 0.00434 | 20800 | B4 |
| 0.413 | 0.0216 | 52400 | B5 |
| 0.217 | 0.00785 | 36100 | B6 |
| 0.217 | 0.0193 | 88900 | B7 |

Molecular target: T1, cynomolgus monkey CD137
Assay: as above
Procedure: as §1, §2, §3

| Kd [µM] | koff [s⁻¹] | kon [M⁻¹ s⁻¹] | Binder |
| --- | --- | --- | --- |
| 205 | 0.00223 | – | B1 |
| 5.76 | 0.0286 | 4980 | B2 |
| 3.12 | 0.00457 | 1470 | B3 |
| 11.1 | 0.00823 | 744 | B4 |
| 4.17 | 0.0101 | 2430 | B5 |
| 4.87 | 0.00593 | 1220 | B6 |
| 6.2 | 0.00813 | 1310 | B7 |

The binders below were run against human CD137 expressed constitutively on the B cell strain HDLM-2 (human, UniProt Q07011 24-255) (assay: cell-based or functional assay).
human CD137 expressed constitutively on the B cell strain HDLM-2, sequence (Q07011 24-255): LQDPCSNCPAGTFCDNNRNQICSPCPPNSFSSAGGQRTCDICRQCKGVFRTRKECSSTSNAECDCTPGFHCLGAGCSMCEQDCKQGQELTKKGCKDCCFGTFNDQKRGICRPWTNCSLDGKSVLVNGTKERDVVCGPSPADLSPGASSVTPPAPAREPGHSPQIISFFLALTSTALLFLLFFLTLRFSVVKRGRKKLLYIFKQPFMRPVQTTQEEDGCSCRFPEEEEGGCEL

| Agonistic activity compared to B, antibody 6 µg/mL [%] | Agonistic activity compared to B, antibody 30 µg/mL [%] | Agonistic activity compared to Ctrl, antibody 6 µg/mL [%] | Agonistic activity compared to Ctrl, antibody 30 µg/mL [%] | hIL-6 (pg/mL), antibody 6 µg/mL [pg/mL] | hIL-6 (pg/mL), antibody 30 µg/mL [pg/mL] | Binder |
| --- | --- | --- | --- | --- | --- | --- |
| -1.27 | 6.51 | -4.41 | 24.7 | 968 | 1130 | B8 |
| 3.21 | 15.8 | 11.1 | 59.8 | 1130 | 1450 | B9 |
| 6.92 | 20.4 | 24 | 77.3 | 1260 | 1610 | B10 |
| -2.21 | 1.1 | -7.68 | 4.19 | 935 | 944 | B11 |
| 8.28 | 19.2 | 28.7 | 72.9 | 1300 | 1570 | B12 |
| 19 | 24.2 | 66.1 | 91.7 | 1680 | 1740 | B13 |
| 13.9 | 24.6 | 48.3 | 93.5 | 1500 | 1750 | B14 |
| 13.2 | 19.4 | 45.8 | 73.6 | 1480 | 1570 | B15 |
